Results as given in patent US20220305081A1.

Target: human SIRPγ (signal regulatory protein gamma), expressed on cells (human) (UniProt Q9P1W8)
Test: cell-based or functional assay

UniProt Q9P1W8, sequence (Q9P1W8 29-387): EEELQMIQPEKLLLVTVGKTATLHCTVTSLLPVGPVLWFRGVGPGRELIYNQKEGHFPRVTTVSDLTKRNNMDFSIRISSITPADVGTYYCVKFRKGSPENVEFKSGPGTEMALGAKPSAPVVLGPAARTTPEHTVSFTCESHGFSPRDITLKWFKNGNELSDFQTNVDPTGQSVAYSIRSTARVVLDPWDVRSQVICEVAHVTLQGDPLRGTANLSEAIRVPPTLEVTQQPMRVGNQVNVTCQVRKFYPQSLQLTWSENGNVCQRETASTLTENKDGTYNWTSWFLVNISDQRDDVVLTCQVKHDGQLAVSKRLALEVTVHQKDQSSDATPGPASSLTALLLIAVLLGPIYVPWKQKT

level of IFNγ secreted by T cells, relative to OX119-treated cells: > 6 fold
level of IFNγ secreted by T cells, relative to cells treated with LSB2.20: 2 fold
Substance: anti-SIRPγ monoclonal antibody clone OX117
